# Paper PMC9352680, “A comprehensive thermodynamic model for RNA binding by the Saccharomyces cerevisiae Pumilio protein PUF4”
# T1: PUF4 RNA-binding domain (Saccharomyces cerevisiae, UniProt P25339 537-888)
# T1 sequence: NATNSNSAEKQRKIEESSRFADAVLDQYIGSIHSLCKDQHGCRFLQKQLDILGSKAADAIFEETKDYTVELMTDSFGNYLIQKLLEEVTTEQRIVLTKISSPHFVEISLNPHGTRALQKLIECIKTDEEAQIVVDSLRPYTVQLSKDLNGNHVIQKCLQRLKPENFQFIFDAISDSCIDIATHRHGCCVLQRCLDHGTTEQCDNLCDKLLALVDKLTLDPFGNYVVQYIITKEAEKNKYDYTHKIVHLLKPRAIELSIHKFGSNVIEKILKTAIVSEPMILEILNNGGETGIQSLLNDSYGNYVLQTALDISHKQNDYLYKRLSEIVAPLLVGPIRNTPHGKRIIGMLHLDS
# Molecular target: T1, PUF4 RNA-binding domain
# Assay: Mg; RNA-MaP; 20 mM Na-HEPES pH 7.4, 30 mM KOAc, 0.75 mM MgCl2, 0.1% Tween-20, 5% glycerol, 0.1 mg/mL BSA, 2 mM DTT; 25 C; 0.0125-409.6 nM protein
# Conditions: tags: N-His6-TEV cleaved; C-SNAP kept, Cy3B-labelled; label: tethered on chip by stalled RNA polymerase
binder,measurement,value
UCUCUUUCUAUAUAUUACCUCUCUU (ssRNA) [Id_ii_S1_P4E.3_K4.2_C4.2_[C-2T]_[T-1C]_H4.2_A4.1_F4.1_T4.2_[G10C]_[T11C]],Kd,25.2 nM
UCUCUUUUUAUAUAUUAAUUCUCUU (ssRNA) [Id_ii_S1_P4E.3_K4.2_C4.2_[C-2T]_H4.2_A4.1_F4.1_T4.2_[G10A]],Kd,28.9 nM
UCUCUUGCUAUAUAUUAUUUCUCUU (ssRNA) [Id_ii_S1_P4E.3_K4.2_C4.2_[C-2G]_[T-1C]_H4.2_A4.1_F4.1_T4.2_[G10T]],Kd,29.8 nM
UCUCUUGCUAUAUAUUAACUCUCUU (ssRNA) [Id_ii_S1_P4E.3_K4.2_C4.2_[C-2G]_[T-1C]_H4.2_A4.1_F4.1_T4.2_[G10A]_[T11C]],Kd,55 nM
UCUCUUUGUAUAUAUUAGGUCUCUU (ssRNA) [Id_ii_S1_P4E.3_K4.2_C4.2_[C-2T]_[T-1G]_H4.2_A4.1_F4.1_T4.2_[T11G]],Kd,7.71 nM
UCUCUUUGUAUUAGUAUCUCUU (ssRNA) [Ia_S1_P5E.1_K5.1_C5.1_H5.1_A5.1_F5.1_[T8G]_T5.1],Kd,18.2 nM
UCUCUUUGUGUUUUAUCUCUU (ssRNA) [Ib_S1_P4E.1_K4.1_C4.1_H4.1_[A4G]_A4.1_[A6T]_F4.1_T4.1],Kd,13.1 nM
UCUCUUUCUAUAUAUUAAUUCUCUU (ssRNA) [Id_ii_S1_P4E.3_K4.2_C4.2_[C-2T]_[T-1C]_H4.2_A4.1_F4.1_T4.2_[G10A]],Kd,39.7 nM
UCUCUUGUUAUAUAUUAAAUCUCUU (ssRNA) [Id_ii_S1_P4E.3_K4.2_C4.2_[C-2G]_H4.2_A4.1_F4.1_T4.2_[G10A]_[T11A]],Kd,26.8 nM
UCUCUUUCUAUAUAUUACAUCUCUU (ssRNA) [Id_ii_S1_P4E.3_K4.2_C4.2_[C-2T]_[T-1C]_H4.2_A4.1_F4.1_T4.2_[G10C]_[T11A]],Kd,23.1 nM
UCUCUUUGUCUGUUAUCUCUU (ssRNA) [Ib_S1_P4E.1_K4.1_C4.1_H4.1_[A4C]_A4.1_[A6G]_F4.1_T4.1],Kd,626 nM
UCUCUUUAUAUAUAUUACCUCUCUU (ssRNA) [Id_ii_S1_P4E.3_K4.2_C4.2_[C-2T]_[T-1A]_H4.2_A4.1_F4.1_T4.2_[G10C]_[T11C]],Kd,29.6 nM
UCUCUUUGUAUAUAUUAUUUCUCUU (ssRNA) [Id_ii_S1_P4E.3_K4.2_C4.2_[C-2T]_[T-1G]_H4.2_A4.1_F4.1_T4.2_[G10T]],Kd,4.46 nM
UCUCUUUCUAUAUAUUAUCUCUCUU (ssRNA) [Id_ii_S1_P4E.3_K4.2_C4.2_[C-2T]_[T-1C]_H4.2_A4.1_F4.1_T4.2_[G10T]_[T11C]],Kd,17.2 nM
UCUCUUUGUAUAUAUUAAGUCUCUU (ssRNA) [Id_ii_S1_P4E.3_K4.2_C4.2_[C-2T]_[T-1G]_H4.2_A4.1_F4.1_T4.2_[G10A]_[T11G]],Kd,8.46 nM
UCUCUUUUUAUAUAUUAUAUCUCUU (ssRNA) [Id_ii_S1_P4E.3_K4.2_C4.2_[C-2T]_H4.2_A4.1_F4.1_T4.2_[G10T]_[T11A]],Kd,22.2 nM
UCUCUUUUUAUAUAUUAAGUCUCUU (ssRNA) [Id_ii_S1_P4E.3_K4.2_C4.2_[C-2T]_H4.2_A4.1_F4.1_T4.2_[G10A]_[T11G]],Kd,485 nM
UCUCUUUCUAUAUAUUAUAUCUCUU (ssRNA) [Id_ii_S1_P4E.3_K4.2_C4.2_[C-2T]_[T-1C]_H4.2_A4.1_F4.1_T4.2_[G10T]_[T11A]],Kd,34.9 nM
UCUCUUGCUAUAUAUUAAAUCUCUU (ssRNA) [Id_ii_S1_P4E.3_K4.2_C4.2_[C-2G]_[T-1C]_H4.2_A4.1_F4.1_T4.2_[G10A]_[T11A]],Kd,126 nM
UCUCUUUGUAUAUAUUAUCUCUCUU (ssRNA) [Id_ii_S1_P4E.3_K4.2_C4.2_[C-2T]_[T-1G]_H4.2_A4.1_F4.1_T4.2_[G10T]_[T11C]],Kd,4.63 nM
UCUCUUUAUAUAUAUUAACUCUCUU (ssRNA) [Id_ii_S1_P4E.3_K4.2_C4.2_[C-2T]_[T-1A]_H4.2_A4.1_F4.1_T4.2_[G10A]_[T11C]],Kd,15.7 nM
UCUCUUUAUAUAUAUUACAUCUCUU (ssRNA) [Id_ii_S1_P4E.3_K4.2_C4.2_[C-2T]_[T-1A]_H4.2_A4.1_F4.1_T4.2_[G10C]_[T11A]],Kd,28.9 nM
UCUCUUGCUAUAUAUUAAUUCUCUU (ssRNA) [Id_ii_S1_P4E.3_K4.2_C4.2_[C-2G]_[T-1C]_H4.2_A4.1_F4.1_T4.2_[G10A]],Kd,70.2 nM
UCUCUUUUUAUAUAUUAGGUCUCUU (ssRNA) [Id_ii_S1_P4E.3_K4.2_C4.2_[C-2T]_H4.2_A4.1_F4.1_T4.2_[T11G]],Kd,22.6 nM
UCUCUUUAUAUAUAUUAGCUCUCUU (ssRNA) [Id_ii_S1_P4E.3_K4.2_C4.2_[C-2T]_[T-1A]_H4.2_A4.1_F4.1_T4.2_[T11C]],Kd,12.7 nM
UCUCUUUCUAUAUAUUACUUCUCUU (ssRNA) [Id_ii_S1_P4E.3_K4.2_C4.2_[C-2T]_[T-1C]_H4.2_A4.1_F4.1_T4.2_[G10C]],Kd,23.8 nM
UCUCUUUUUAUAUAUUAAAUCUCUU (ssRNA) [Id_ii_S1_P4E.3_K4.2_C4.2_[C-2T]_H4.2_A4.1_F4.1_T4.2_[G10A]_[T11A]],Kd,55.1 nM
UCUCUUUUUAUAUAUUAUCUCUCUU (ssRNA) [Id_ii_S1_P4E.3_K4.2_C4.2_[C-2T]_H4.2_A4.1_F4.1_T4.2_[G10T]_[T11C]],Kd,19.8 nM
UCUCUUGUUAUAUAUUAGUUCUCUU (ssRNA) [Id_ii_S1_P4E.3_K4.2_C4.2_[C-2G]_H4.2_A4.1_F4.1_T4.2],Kd,8.13 nM
UCUCUUUAUAUAUAUUAAAUCUCUU (ssRNA) [Id_ii_S1_P4E.3_K4.2_C4.2_[C-2T]_[T-1A]_H4.2_A4.1_F4.1_T4.2_[G10A]_[T11A]],Kd,38.1 nM
UCUCUUUUUAUAUAUUACUUCUCUU (ssRNA) [Id_ii_S1_P4E.3_K4.2_C4.2_[C-2T]_H4.2_A4.1_F4.1_T4.2_[G10C]],Kd,21 nM
